What is called Kd is the free concentration of one partner at which half of the binding sites on the other are occupied at equilibrium, for simple one-to-one binding.

For two molecules, Kd results are on record in paper PMC10377887, “Individual Contributions of Amido Acid Residues Tyr122, Ile168, and Asp173 to the Activity and Substrate Specificity of Human DNA Dioxygenase ABH2”.

In the data set the target is T1, ABH2 WT (human, UniProt Q6NS38 1-261).
T1 sequence: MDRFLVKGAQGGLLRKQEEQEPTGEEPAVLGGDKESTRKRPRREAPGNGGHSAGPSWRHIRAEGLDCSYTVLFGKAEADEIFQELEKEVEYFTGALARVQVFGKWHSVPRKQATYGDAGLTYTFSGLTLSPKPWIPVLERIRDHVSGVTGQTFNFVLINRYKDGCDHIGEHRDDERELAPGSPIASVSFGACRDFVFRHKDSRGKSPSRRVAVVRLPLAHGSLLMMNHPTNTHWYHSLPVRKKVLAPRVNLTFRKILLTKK
The experiment in a line: EMSA; 0.5 mM αKG, 10 mM Mg2+, 2 mM ascorbate; EMSA: 50 mM Tris-HCl pH 8.0, 50 mM KCl, 10 mM MgCl2, 0.5 mM αKG, 2 mM Na ascorbate; 1.2 µM DNA, 0.4-12.8 µM protein; 10 min 37 °C then 5 min on ice; 10% native. To be noted: protein: recombinant; tags: N-terminal His6; label: 5'-FAM on strand 1; blunt. On the technique in general: A gel shift assay detects complexes by their altered migration in electrophoresis.

B1: m1A (dsDNA)
DNA 1: AGTTCAATGATCTTCAT
DNA 2: ATGAAGATCATTGAACT
modifications: N1-methyladenine at position 10 of strand 1
Take B1: the Kd came out at 2450 ± 70 nM.

B2: m3C (dsDNA)
DNA 1: AGTTCAATGATCTTCAT
DNA 2: ATGAAGATCATTGAACT
modifications: N3-methylcytosine at position 12 of strand 1
Consider B2, for which the Kd is 3500 ± 100 nM.
